Assay [1] has as its target T1, His6-TEV-MSP1D1 (CA15914) (human Apo A-I derived, engineered, biotinylated with EZ-link NHS-Biotin for the BLI experiment only).
T1 construct: Membrane scaffold protein; The entry holds the 6xHis tag, the TEV cleavage site and MSP1D1; Tested in Apo-state (lipid free) and in Nanodisc-state (POPC nanodisc, two MSP1D1 per nanodisc)
T1 chain: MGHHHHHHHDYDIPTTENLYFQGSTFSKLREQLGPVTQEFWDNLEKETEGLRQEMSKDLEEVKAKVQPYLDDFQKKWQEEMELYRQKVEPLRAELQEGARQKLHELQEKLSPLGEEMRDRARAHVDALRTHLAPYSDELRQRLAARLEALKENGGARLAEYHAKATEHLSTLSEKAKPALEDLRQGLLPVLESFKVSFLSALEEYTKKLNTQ
In words: ELISA, purified MegaBody on coated MSP (Apo- or Nanodisc-state) vs non-coated wells, A405. (In an ELISA, binding on a coated surface is turned into a signal by an enzyme label.)

The target in assay [2] is T2, His6-TEV-MSP2N2 (CA15915) (human Apo A-I derived, engineered, UniProt P02647 79-267, limits assumed).
T2 construct: Membrane scaffold protein; The entry holds the 6xHis tag, the TEV cleavage site and MSP2N2; Tested in Apo-state, in Nanodisc-state, and as the belt of nanodiscs loaded with GABAAR-β3
The description is as above.

Bounds are passed on as bounds.

B1: MbNbE4^c7HopQ MegaBody (CA15191) (other)
chain: QVQLVESGGGLVQTKTTTSVIDTTNDAQNLLTQAQTIVNTLKDYCPILIAKSSSSNGGTNNANTPSWQTAGGGKNSCATFGAEFSAASDMINNAQKIVQETQQLSANQPKNITQPHNLNLNSPSSLTALAQKMLKNAQSQAEILKLANQVESDFNKLSSGHLKDYIGKCDASAISSANMTMQNQKNNWGNGCAGVEETQSLLKTSAADFNNQTPQINQAQNLANTLIQELGNNTYEQLSRLLTNDNGTNSKTSAQAINQAVNNLNERAKTLAGGTTNSPAYQATLLALRSVLGLWNSMGYAVICGGYTKSPGENNQKDFHYTDENGNGTTINCGGSTNSNGTHSYNGTNTLKADKNVSLSIEQYEKIHEAYQILSKALKQAGLAPLNSKGEKLEAHVTTSKYGSLRLSCAASGRTFGSTFMGWFRQAPGKERDFVASITWNRGLTTYADSVKGRFTISRDSAKNTVDLQMNNLKPEDTAVYYCVLGMGTSFASWGQGTQVTVSSHHHHHHEPEA
notes: MegaBody: c7HopQ scaffold inserted in the first β-turn of Nanobody MP1521_E4; Entry includes 6xHis and EPEA tags
For B1, the “fold ELISA signal over no MSP” value in assay [1] and in assay [2] was not below 4 fold in each case.

B2: MbNbG9^c7HopQ MegaBody (CA15899) (other)
chain: QVQLVESGGGSVQTKTTTSVIDTTNDAQNLLTQAQTIVNTLKDYCPILIAKSSSSNGGTNNANTPSWQTAGGGKNSCATFGAEFSAASDMINNAQKIVQETQQLSANQPKNITQPHNLNLNSPSSLTALAQKMLKNAQSQAEILKLANQVESDFNKLSSGHLKDYIGKCDASAISSANMTMQNQKNNWGNGCAGVEETQSLLKTSAADFNNQTPQINQAQNLANTLIQELGNNTYEQLSRLLTNDNGTNSKTSAQAINQAVNNLNERAKTLAGGTTNSPAYQATLLALRSVLGLWNSMGYAVICGGYTKSPGENNQKDFHYTDENGNGTTINCGGSTNSNGTHSYNGTNTLKADKNVSLSIEQYEKIHEAYQILSKALKQAGLAPLNSKGEKLEAHVTTSKYGSLRLSCAASGRTFSTYRMGWFRQAPGKEREFVAGWNSINIYYADSVKGRFTISGDNAKSTVYLQMNSLKPEDTAVYYCAARGLGQTEYNYWGQGTQVTVSSHHHHHHEPEA
notes: MegaBody: c7HopQ scaffold inserted in the first β-turn of Nanobody MP1521_G9; Entry includes 6xHis and EPEA tags
As for B2, the “fold ELISA signal over no MSP” value in assay [1] and in assay [2] was not below 4 fold in each case.

B3: MbNbB7^c7HopQ MegaBody (CA15901) (other)
chain: QVQLVESGGGLVQTKTTTSVIDTTNDAQNLLTQAQTIVNTLKDYCPILIAKSSSSNGGTNNANTPSWQTAGGGKNSCATFGAEFSAASDMINNAQKIVQETQQLSANQPKNITQPHNLNLNSPSSLTALAQKMLKNAQSQAEILKLANQVESDFNKLSSGHLKDYIGKCDASAISSANMTMQNQKNNWGNGCAGVEETQSLLKTSAADFNNQTPQINQAQNLANTLIQELGNNTYEQLSRLLTNDNGTNSKTSAQAINQAVNNLNERAKTLAGGTTNSPAYQATLLALRSVLGLWNSMGYAVICGGYTKSPGENNQKDFHYTDENGNGTTINCGGSTNSNGTHSYNGTNTLKADKNVSLSIEQYEKIHEAYQILSKALKQAGLAPLNSKGEKLEAHVTTSKYGSLRLSCAASGRSFSSYGMGWFRQAPGKEREFAAGITGTAGITYYTDSVKGRFTISRDNAKNTVYLQMNNLKPEDTAVYYCAAGLTSYAGRGAAGYDYWGQGTQVTVSSHHHHHHEPEA
notes: MegaBody: c7HopQ scaffold inserted in the first β-turn of Nanobody MP1522_B7; Entry includes 6xHis and EPEA tags
Consider B3, for which the “fold ELISA signal over no MSP” value in assay [1] and in assay [2] was not below 4 fold each time.

B4: MbNbA12^c7HopQ MegaBody (CA15900) (other)
chain: QVQLVESGGGLVQTKTTTSVIDTTNDAQNLLTQAQTIVNTLKDYCPILIAKSSSSNGGTNNANTPSWQTAGGGKNSCATFGAEFSAASDMINNAQKIVQETQQLSANQPKNITQPHNLNLNSPSSLTALAQKMLKNAQSQAEILKLANQVESDFNKLSSGHLKDYIGKCDASAISSANMTMQNQKNNWGNGCAGVEETQSLLKTSAADFNNQTPQINQAQNLANTLIQELGNNTYEQLSRLLTNDNGTNSKTSAQAINQAVNNLNERAKTLAGGTTNSPAYQATLLALRSVLGLWNSMGYAVICGGYTKSPGENNQKDFHYTDENGNGTTINCGGSTNSNGTHSYNGTNTLKADKNVSLSIEQYEKIHEAYQILSKALKQAGLAPLNSKGEKLEAHVTTSKYGSLRLSCAASGRTFSSYNMAWFRQVPGKEREFVASIARTGSGTYYRDSVKGRFTISRDNAKNTVYLQMNSLKPQDTAVYYCTAGGSLATISDYWGQGTQVTVSSHHHHHHEPEA
notes: MegaBody: c7HopQ scaffold inserted in the first β-turn of Nanobody MP1522_A12; Entry includes 6xHis and EPEA tags
With B4, the “fold ELISA signal over no MSP” value in assay [1] and in assay [2] was not below 4 fold each time.

B5: MbNbA5^c7HopQ MegaBody (CA15906) (other)
chain: QVQLVESGGGLVQTKTTTSVIDTTNDAQNLLTQAQTIVNTLKDYCPILIAKSSSSNGGTNNANTPSWQTAGGGKNSCATFGAEFSAASDMINNAQKIVQETQQLSANQPKNITQPHNLNLNSPSSLTALAQKMLKNAQSQAEILKLANQVESDFNKLSSGHLKDYIGKCDASAISSANMTMQNQKNNWGNGCAGVEETQSLLKTSAADFNNQTPQINQAQNLANTLIQELGNNTYEQLSRLLTNDNGTNSKTSAQAINQAVNNLNERAKTLAGGTTNSPAYQATLLALRSVLGLWNSMGYAVICGGYTKSPGENNQKDFHYTDENGNGTTINCGGSTNSNGTHSYNGTNTLKADKNVSLSIEQYEKIHEAYQILSKALKQAGLAPLNSKGEKLEAHVTTSKYGSLRLSCAASGFAFSNSYMSWVRQAPGKGPEWVSSISPSAWIITHGDSVKGRFTISRDNAKNTLYLQMNHLKPEDAALYYCARRQGYDGYVPSRDYWGQGTQVTVSSHHHHHHEPEA
notes: MegaBody: c7HopQ scaffold inserted in the first β-turn of Nanobody MP1522_A5; Entry includes 6xHis and EPEA tags
Consider B5, for which the “fold ELISA signal over no MSP” value in assay [1] and in assay [2] was not below 4 fold in each case.

B6: MbNb2_B9^c7HopQ MegaBody (CA15903) (other)
chain: QVQLVESGGGLVQTKTTTSVIDTTNDAQNLLTQAQTIVNTLKDYCPILIAKSSSSNGGTNNANTPSWQTAGGGKNSCATFGAEFSAASDMINNAQKIVQETQQLSANQPKNITQPHNLNLNSPSSLTALAQKMLKNAQSQAEILKLANQVESDFNKLSSGHLKDYIGKCDASAISSANMTMQNQKNNWGNGCAGVEETQSLLKTSAADFNNQTPQINQAQNLANTLIQELGNNTYEQLSRLLTNDNGTNSKTSAQAINQAVNNLNERAKTLAGGTTNSPAYQATLLALRSVLGLWNSMGYAVICGGYTKSPGENNQKDFHYTDENGNGTTINCGGSTNSNGTHSYNGTNTLKADKNVSLSIEQYEKIHEAYQILSKALKQAGLAPLNSKGEKLEAHVTTSKYGSLRLSCVRSARTFGSVAMGWFRQAPGKEREFVTAIDWSGSNTLYADSVKGRFTISRDNAKNTVYLQMNSLKPDDTAVYYCAASRRVVVTTSDFDSWGQGTQVTVSSHHHHHHEPEA
notes: MegaBody: c7HopQ scaffold inserted in the first β-turn of Nanobody MP1522_B9; Entry includes 6xHis and EPEA tags
For the molecule B6, the “fold ELISA signal over no MSP” value in assay [1] and in assay [2] was not below 4 fold in each case.

B7: MDNb1_B9^c7HopQ MegaBody (CA15898) (other)
chain: QVQLVESGGGLVQTKTTTSVIDTTNDAQNLLTQAQTIVNTLKDYCPILIAKSSSSNGGTNNANTPSWQTAGGGKNSCATFGAEFSAASDMINNAQKIVQETQQLSANQPKNITQPHNLNLNSPSSLTALAQKMLKNAQSQAEILKLANQVESDFNKLSSGHLKDYIGKCDASAISSANMTMQNQKNNWGNGCAGVEETQSLLKTSAADFNNQTPQINQAQNLANTLIQELGNNTYEQLSRLLTNDNGTNSKTSAQAINQAVNNLNERAKTLAGGTTNSPAYQATLLALRSVLGLWNSMGYAVICGGYTKSPGENNQKDFHYTDENGNGTTINCGGSTNSNGTHSYNGTNTLKADKNVSLSIEQYEKIHEAYQILSKALKQAGLAPLNSKGEKLEAHVTTSKYGSLRLSCAASGRTLCSIPMGWFRQAPGKEREFVAAIRWSGGSTYYADSVKGRFSISKDNAKNTVYLQMNNLKPEDTATYYCASAAPYSSWSRGLEYDYWGQGTQVTVSSHHHHHHEPEA
notes: MegaBody: c7HopQ scaffold inserted in the first β-turn of Nanobody MP1521_B9; Entry includes 6xHis and EPEA tags; The name is printed 'MDNb', probably for 'MbNb'
For the molecule B7, the “fold ELISA signal over no MSP” value in assay [1] and in assay [2] was not below 4 fold in each case.

B8: MbNbC10^c7HopQ MegaBody (CA15905) (other)
chain: QVQLVESGGGLVQTKTTTSVIDTTNDAQNLLTQAQTIVNTLKDYCPILIAKSSSSNGGTNNANTPSWQTAGGGKNSCATFGAEFSAASDMINNAQKIVQETQQLSANQPKNITQPHNLNLNSPSSLTALAQKMLKNAQSQAEILKLANQVESDFNKLSSGHLKDYIGKCDASAISSANMTMQNQKNNWGNGCAGVEETQSLLKTSAADFNNQTPQINQAQNLANTLIQELGNNTYEQLSRLLTNDNGTNSKTSAQAINQAVNNLNERAKTLAGGTTNSPAYQATLLALRSVLGLWNSMGYAVICGGYTKSPGENNQKDFHYTDENGNGTTINCGGSTNSNGTHSYNGTNTLKADKNVSLSIEQYEKIHEAYQILSKALKQAGLAPLNSKGEKLEAHVTTSKYGSLRLSCAASGRTSGSYAIGWFRQAPGKEREFAAAISFTAGVTYYSNSVKGRFTISRDSAKNTAYLQMNTLKPEDTAVYYCATLPSLVLILTAKPNIGYWGQGTQVTVSSHHHHHHEPEA
notes: MegaBody: c7HopQ scaffold inserted in the first β-turn of Nanobody MP1522_C10; Entry includes 6xHis and EPEA tags
Consider B8, for which the “fold ELISA signal over no MSP” value in assay [1] and in assay [2] was not below 4 fold each time.

B9: MbNbH5^c7HopQ MegaBody (CA15904) (other)
chain: QVQLVESGGGLVQTKTTTSVIDTTNDAQNLLTQAQTIVNTLKDYCPILIAKSSSSNGGTNNANTPSWQTAGGGKNSCATFGAEFSAASDMINNAQKIVQETQQLSANQPKNITQPHNLNLNSPSSLTALAQKMLKNAQSQAEILKLANQVESDFNKLSSGHLKDYIGKCDASAISSANMTMQNQKNNWGNGCAGVEETQSLLKTSAADFNNQTPQINQAQNLANTLIQELGNNTYEQLSRLLTNDNGTNSKTSAQAINQAVNNLNERAKTLAGGTTNSPAYQATLLALRSVLGLWNSMGYAVICGGYTKSPGENNQKDFHYTDENGNGTTINCGGSTNSNGTHSYNGTNTLKADKNVSLSIEQYEKIHEAYQILSKALKQAGLAPLNSKGEKLEAHVTTSKYGSLRLSCAASGFTFSTYSMSWVRQAPGKGLEWVSRILTDGGTTSYPDSVKGRFTISRDNAKNTLYLQMNNLKPEDTAVYYCARGWPSDGYSGGYRGQGTQVTVSSHHHHHHEPEA
notes: MegaBody: c7HopQ scaffold inserted in the first β-turn of Nanobody MP1521_H5; Entry includes 6xHis and EPEA tags
Consider B9, for which the “fold ELISA signal over no MSP” value in assay [1] and in assay [2] was not below 4 fold in each case.

The values above are taken from patent publication US20220380456A1 (UNITED KINGDOM RESEARCH AND INNOVATION, published 2022).
